# Like-named read-outs stand apart in the source and are kept apart here.
# B1: WT: wild-type E. coli flavohemoglobin (flavoHb), an NO dioxygenase (NOD) (protein, UniProt P24232 1-396, looked up)
# Flavohemoprotein: MLDAQTIATVKATIPLLVETGPKLTAHFYDRMFTHNPELKEIFNMSNQRNGDQREALFNAIAAYASNIENLPALLPAVEKIAQKHTSFQIKPEQYNIVGEHLLATLDEMFSPGQEVLDAWGKAYGVLANVFINREAEIYNENASKAGGWEGTRDFRIVAKTPRSALITSFELEPVDGGAVAEYRPGQYLGVWLKPEGFPHQEIRQYSLTRKPDGKGYRIAVKREEGGQVSNWLHNHANVGDVVKLVAPAGDFFMAVADDTPVTLISAGVGQTPMLAMLDTLAKAGHTAQVNWFHAAENGDVHAFADEVKELGQSLPRFTAHTWYRQPSEADRAKGQFDSEGLMDLSKLEGAFSDPTMQFYLCGPVGFMQFTAKQLVDLGVKQENIHYECFGPHKVL
# Tests used:
# E. coli flavoHb = E. coli flavoHb (Escherichia coli, UniProt P24232); conditions: cited from earlier work
# E. coli flavoHb-NOD [1] = system: E. coli flavoHb-NOD
# Protocol: (§1) NOD activity was measured amperometrically in 100 mM phosphate buffer, pH 7.0, containing 0.3 mM EDTA, 100 μg/ml bovine serum albumin (BSA) (Fraction V), 100 μM NADH, 0.1 μM FAD with NO, O2, and N2 mixtures added as described ([4], [72]). NADH oxidase activity was followed spectrophotometrically at 340 nm in a 1.0-ml cuvette containing 90 mM Tris chloride buffer, pH 8.2, 100 μM NADH, 200 μM O2, 0.1 μM FAD, 100 μg/ml BSA, and 0.3 mM EDTA and incubated at 37 °C. Cytochrome b5 reductase activity was assayed at 37 °C by following the rate of absorbance increase at 555 nm in a 1.0-ml reaction buffered with 90 mM Tris chloride, pH 8.2, and containing 10 μM ferric cytochrome b5, 200 μM O2, 20 μM NADH, 0.1 μM FAD, 100 μg/ml BSA, and 0.3 mM EDTA. TMAO reductase activity was assayed by following the absorbance decrease at 340 nm in a 1.0-ml anaerobic reaction containing 12 U Aspergillus niger glucose oxidase, 5 mM glucose, 260 U catalase, 400 mM TMAO, 100 μM NADH, 0.1 μM FAD, 100 μg/ml BSA, and 0.3 mM EDTA in 90 mM Tris chloride pH 8.2 and incubated at 37 °C. Ngb reductase activity was assayed by following the absorbance increase at 424 nm in a 1.0-ml anaerobic reaction containing 12 U glucose oxidase, 5 mM glucose, 260 U catalase, 5 μM Ngb, 50 μM NADH, 0.1 μM FAD, 100 μg/ml BSA, and 0.3 mM EDTA in 90 mM Tris chloride buffer, pH 8.2, and incubated at 37 °C. Methyl viologen reductase activity was assayed by following the formation of the blue cation radical at 603 nm and by applying an extinction coefficient of 13,300 M^−1 cm^−1 in a 1.0-ml anaerobic reaction buffered with 10 mM potassium phosphate, pH 7.0, and containing 12 U glucose oxidase, 5 mM glucose, 260 U catalase, 100 μM NADH, 0.1 μM FAD, 100 μg/ml BSA, 0.3 mM EDTA, and 200 mM sodium chloride and incubated at 37 °C. NO reductase activity was assayed amperometrically at 37 °C in a 1.0-ml anaerobic reaction containing 2 μM NO, 100 μM NADH, 0.1 μM FAD, 12 U glucose oxidase, 5 mM glucose, 260 U catalase, 100 μg/ml BSA, and 0.3 mM EDTA buffered with 10 mM potassium phosphate pH 7.0. CO effects were tested at a final concentration of 50 μM as diluted from a 1 mM stock in water. All activities are reported relative to the heme content of flavoHb.
# TMAO reductase activity = type: biochemical; conditions: 37 °C; 400 mM TMAO; anaerobic
# Protocol: (§2) NADH oxidase activity was followed spectrophotometrically at 340 nm in a 1.0-ml cuvette containing 90 mM Tris chloride buffer, pH 8.2, 100 μM NADH, 200 μM O2, 0.1 μM FAD, 100 μg/ml BSA, and 0.3 mM EDTA and incubated at 37 °C. […] TMAO reductase activity was assayed by following the absorbance decrease at 340 nm in a 1.0-ml anaerobic reaction containing 12 U Aspergillus niger glucose oxidase, 5 mM glucose, 260 U catalase, 400 mM TMAO, 100 μM NADH, 0.1 μM FAD, 100 μg/ml BSA, and 0.3 mM EDTA in 90 mM Tris chloride pH 8.2 and incubated at 37 °C. […] Methyl viologen reductase activity was assayed by following the formation of the blue cation radical at 603 nm and by applying an extinction coefficient of 13,300 M^−1 cm^−1 in a 1.0-ml anaerobic reaction buffered with 10 mM potassium phosphate, pH 7.0, and containing 12 U glucose oxidase, 5 mM glucose, 260 U catalase, 100 μM NADH, 0.1 μM FAD, 100 μg/ml BSA, 0.3 mM EDTA, and 200 mM sodium chloride and incubated at 37 °C. NO reductase activity was assayed amperometrically at 37 °C in a 1.0-ml anaerobic reaction containing 2 μM NO, 100 μM NADH, 0.1 μM FAD, 12 U glucose oxidase, 5 mM glucose, 260 U catalase, 100 μg/ml BSA, and 0.3 mM EDTA buffered with 10 mM potassium phosphate pH 7.0. CO effects were tested at a final concentration of 50 μM as diluted from a 1 mM stock in water. […]
# [2] = design: method as in PMID 7821669; conditions: cited from earlier work
# E. coli flavoHb-NOD [3] = type: biochemical, Escherichia coli; conditions: for Ki: NO competitive with O2; for K3: NO passage through gate, apparent Km(NO); for Kii(NO): NO uncompetitive inhibition; for K2: O2 displacement of LeuE11; for k'NOD app: calculated from Vmax/K3; for k'NOD: calculated from Vmax/K4; for K4: reaction of NO with Fe^3+O2^−; for KT: trigger step equilibrium constant
# Source text: We have formulated a steady-state velocity equation for the catalytic cycle with the activating trigger step (KT) (Equation 1).(1) v= Vmax(a) where a=([NO]^2[O2]^2/K1K2K3KTK4)/(1+([O2]/K1)+([O2]^2/K1K2)+(([O2]^2[NO])/K1K2K3)+(([O2]^2[NO])/K1K2K3KT)+(([O2]^2[NO]^2)/K1K2K3KTK4))
# (2) v= Vmax(a)(b) where b=[NO]/(K3+([NO](1+((K2/[O2])(1+([NO]/Ki(NO)))))))
# In addition, we have introduced a factor and equilibrium constant Ka(O2) for rare situations in which O2 causes an additional NO-independent activation of catalysis possibly by occupying unique binding sites or cavities (Equation 5).
# as §1
# Rate constants were estimated from the model kinetic equation using Python programming with successive approximations to optimize fits with varying NO and O2 concentrations. Vmax, K1, K2, KT, and Kii(NO) values were treated as independent variables for a given flavoHb while allowing K3, K4, and Ki(NO) to vary over limited ranges with varying O2 concentration. Kii(NO) was estimated from NO inhibition at saturating O2 concentrations.
# Ngb = Ngb reductase activity; type: biochemical, murine; conditions: 37 °C; 5 μM Ngb; anaerobic
# Source text: Reagents were purchased from Sigma-Aldrich Chemical Co (St Louis, MO, USA) unless otherwise stated. DNA primers were synthesized at the University of Cincinnati Medical Center DNA facility. Praxair (Bethlehem, PA, USA) was the supplier of 99.993% O2, 99.999% CO, and 99.98% N2. Bovine liver catalase (260,000 U/ml) was obtained from Roche Applied Science. Recombinant rat cytochrome b5 (soluble form) and murine Ngb were expressed in E. coli and purified essentially as described ([10], [70]). NADH purity (≥95%) was assessed by the ratio of the 340 to 260 nm absorbance with a value of 0.437 equal to 100% reduced.
# [4] = Methyl viologen reductase activity; type: biochemical; conditions: 37 °C; anaerobic
# Protocol: as §2
# NADH oxidase activity = type: biochemical; conditions: 37 °C; relative to heme content
# Protocol: as §2
# E. coli growth = system: E. coli growth; design: method as in PMID 11751865; conditions: atmosphere containing 5 μM O2 and 0.5 μM NO; cited from earlier work
# [5] = system: flavoHb heme (Fe^2+ / Fe^3+); conditions: cited from earlier work
# anaerobic E. coli = system: anaerobic E. coli; design: method as in PMID 11751864; conditions: cited from earlier work
molecule,measurement,setting,value
B1,kET previously reported,E. coli flavoHb,136 s⁻¹
same,Δv/Δ[NADH],E. coli flavoHb-NOD [1]; 20 °C,36 s⁻¹ µM⁻¹
same,Δv/Δ[NADH],"E. coli flavoHb-NOD [1]; 20 °C, 130 nM NO",30 s⁻¹ µM⁻¹
same,Δv/Δ[NADH],E. coli flavoHb-NOD [1]; 37 °C,59 s⁻¹ µM⁻¹
same,Δv/Δ[NADH],"E. coli flavoHb-NOD [1]; 37 °C, 130 nM NO",59 s⁻¹ µM⁻¹
same,TMAO reductase activity,TMAO reductase activity,0.21 s⁻¹
same,FAD/FADH2 potential (E^0),[2],< −0.15 V
same,nominal heme mid-point potential,[2],−0.125 V
same,Vmax,E. coli flavoHb-NOD [3]; 20 °C,160 NO heme^−1 s^−1
same,Ki,E. coli flavoHb-NOD [3]; 20 °C,300 to 1000 nM
same,K3,E. coli flavoHb-NOD [3]; 20 °C,0.1–0.4 Micromolar
same,Kii(NO),E. coli flavoHb-NOD [3]; 20 °C,10 (10) Micromolar
same,K2,E. coli flavoHb-NOD [3]; 20 °C,20 Micromolar
same,k'NOD app,E. coli flavoHb-NOD [3]; 20 °C,0.4–1.6 10^9 M^−1 s^−1
same,k'NOD,E. coli flavoHb-NOD [3]; 20 °C,0.5–2.7 10^9 M^−1 s^−1
same,K4,E. coli flavoHb-NOD [3]; 20 °C,0.06–0.3 Micromolar
same,KT,E. coli flavoHb-NOD [3]; 20 °C,0.1 (0.1)
same,Vmax,E. coli flavoHb-NOD [3]; 37 °C,580 NO heme^−1 s^−1
same,Ki,E. coli flavoHb-NOD [3]; 37 °C,700 to 1200 nM
same,K3,E. coli flavoHb-NOD [3]; 37 °C,0.25 Micromolar
same,Kii(NO),E. coli flavoHb-NOD [3]; 37 °C,10 (10) Micromolar
same,K2,E. coli flavoHb-NOD [3]; 37 °C,120 Micromolar
same,k'NOD app,E. coli flavoHb-NOD [3]; 37 °C,2.3 10^9 M^−1 s^−1
same,k'NOD,E. coli flavoHb-NOD [3]; 37 °C,9.7–19 10^9 M^−1 s^−1
same,K4,E. coli flavoHb-NOD [3]; 37 °C,0.03–0.06 Micromolar
same,KT,E. coli flavoHb-NOD [3]; 37 °C,0.1 (0.1)
same,overall activation energy (Ea),E. coli flavoHb-NOD [3]; Arrhenius equation for Vmax at 37 and 20 °C,~13.7 kcal/mol
same,Ngb reductase activity,Ngb,0.20 s⁻¹
same,methyl viologen reductase activity,[4],0.36 s^−1
same,NADH oxidase activity,NADH oxidase activity,0.27 s⁻¹
same,protection of E. coli growth,E. coli growth,fully protects
same,k,[5]; Fe^2+ NO dissociation,0.0002 (4) s^−1
same,k,[5]; Fe^3+ NO dissociation,∼4000 (4) s^−1
same,NO metabolic activity,anaerobic E. coli,insignificant NO metabolic activity

# From article PMC7948479, “Allostery in the nitric oxide dioxygenase mechanism of flavohemoglobin” (The Journal of Biological Chemistry, 2020)
